Data set [1] deals with A431 (PTK7+, ATCC CRL-1555) cells. Nature of the data set: In vitro cytotoxicity, resazurin viability. The format is cell-based. The conditions noted are these: 5 days incubation. Here is the method: A431 (PTK7+, ATCC CRL-1555) cells were plated in 96-well plates (10000 cells in 150 μL/well) in DMEM (ATCC) supplemented with 10% fetal bovine serum (FBS) (Invitrogen) and incubated overnight in a humidified atmosphere at 37° C. and 5% CO2. ADCs were added in triplo in a square root of 10 dilution series to obtain a final concentration ranging from 100 nM-0.01 nM. The cells were incubated for 5 days in a humidified atmosphere at 37° C. and 5% CO2. The culture medium was replaced by 0.01 mg/mL resazurin (Sigma Aldrich) in DMEM supplemented with 10% FBS (200 μL/well). After approximately 4 hours in a humidified atmosphere at 37° C. and 5% CO2 the fluorescence was detected with a fluorescence plate reader (Infinite® M1000 Tecan) at 560 nm excitation and 590 nm emission. The relative fluorescent units (RFU) were normalized to cell viability percentage by setting wells without cells at 0% viability and wells with untreated cells at 100% viability (see FIG. 9). IC50 values for ADCs on A431 cells were calculated by non-linear regression using Graphpad prism software and are shown in the table below: […]

The test system of data set [2] is PTK7 expressing NCl—H446 tumor model. Nature of the data set: In vivo efficacy study, NCl—H446 xenograft (Example 30). Also noted: species or system BALB/c nude mice. The conditions noted are these: single IV dose; cofetuzumab-3 2.59, 5.18, 10.36 mg/kg; cofetuzumab-5b 2.59, 5.18 mg/kg; cofetuzumab-Aur0101 2.33 mg/kg; up to t=44 days. Here is the method: (§1) NCl—H446, lung cancer xenograft model cell line was maintained in vitro using RPMI-1640 medium supplemented with 10% FBS in humidified cell culture incubator at 37° C. with standard 5% CO2 specs. The cells in an exponential growth phase were harvested and counted for tumor inoculation.
BALB/c nude mice (female) of 7-9 weeks old received a subcutaneous injection in the right front flank region with 5×10^6 tumor cells in 0.1 ml of PBS mixed with Matrigel (1:1) for tumor development. When tumors reached an average size of 100-200 mm^3, randomization was performed into 10 groups of 8 mice and treatment began. Randomization will be performed based on “Matched distribution” method (Study Director™ Software, version 3.1.399.19). The date of randomization will be denoted as day 0.
(§2) Electronic caliper measurement were performed 2 times a week. Daily observations for clinical signs, food and water consumption, behavioral changes, animals were weighed 2 times per week. […]
Observation and data collection. […] Tumor volumes are measured every 3-4 days in two dimensions using an caliper, and the volume data are expressed in mm3 using the formula: V=(L×W×W)/2, where V is tumor volume, L is tumor length (the longest tumor dimension) and W is tumor width (the longest tumor dimension perpendicular to L). […]

Data set [3] in a line: Stability of ADCs in human plasma (DAR by RP-UPLC). It is filed as in vitro ADME. On the procedure: (§3) General procedure for analytical RP-UPLC (DTT treated samples): Prior to RP-UPLC analysis, IgG (10 μL, 1 mg/mL in PBS pH 7.4) was added to 12.5 mM DTT, 100 mM TrisHCl pH 8.0 (40 μL) and incubated for 15 minutes at 37° C. The reaction was quenched by adding 49% acetonitrile, 49% water, 2% formic acid (50 μL). RP-UPLC analysis was performed on a Waters Acquity UPLC-SQD. The sample (5 μL) was injected with 0.4 mL/min onto Bioresolve RP mAb 2.1*150 mm 2.7 μm (Waters) with a column temperature of 70° C. A linear gradient was applied in 9 minutes from 30 to 54% acetonitrile in 0.1% TFA and water. Absorbance of eluted peaks was measured at 215 nm followed by automated integration (MassLynx, Waters) to determine reaction conversion.
(§4) Stability of ADCs in mice and human plasma was tested. Prior to the assay, the plasma was depleted from all IgG using CaptivA® Protein A agarose (1 mL agarose/mL serum). ADCs were added to the depleted human/mouse serum to a final concentration of 0.1 mg/mL followed by incubation at 37° C. At each time point, 0.5 mL was snap frozen and stored at −80° C. until further analysis. To isolate the ADCs after incubation, 20 μl CaptivA® Protein A agarose resin was added to the samples and incubated for 1 hour at room temperature. The resin was washed three times with PBS and subsequently 0.1 M Glycine-HCl pH 2.7 (0.4 mL) was added to elute the ADCs. After elution, the samples were immediately neutralized with 1.0 M Tris pH 8.0 (0.1 mL). The samples were spin-filtered against PBS for three times using Amicon Ultra spin-filter 0.5 mL MWCO 10 kDa (Merck Millipore) and the volume was reduced to 40 μL, yielding a final ADC concentration of approximately 1 mg/mL. Samples were analyzed on RP-UPLC (DTT reduced) to determine the DAR, tables below.

The nature of data set [4]: Stability of ADCs in mice plasma (DAR by RP-UPLC). The format is in vitro ADME. On the procedure: as §3, §4
For data set [5], the system named is PTK7 expressing NCl—H446 tumor model. Nature of the data set: In vivo efficacy study, NCl—H446 xenograft, with Olaparib (Example 33). Set-up: species or system BALB/c nude mice. The conditions noted are these: ADC 2.5 mg/kg single IV dose; Olaparib 50 mg/kg orally QD×21 days. Here is the method: as §1
BALB/c nude mice (female) of 7-9 weeks old received a subcutaneous injection in the right front flank region with 5×10^6 tumor cells in 0.1 ml of PBS mixed with Matrigel (1:1) for tumor development. When tumors reached an average size of 100-200 mm^3, randomization was performed into 5 groups of 8 mice and treatment began. Randomization will be performed based on “Matched distribution” method (Study Director™ Software, version 3.1.399.19). The date of randomization will be denoted as day 0.
as §2
Observation and data collection: After tumor cells inoculation, the animals are checked daily for morbidity and mortality. […] Tumor volumes are measured every 3-4 days in two dimensions using an caliper, and the volume data are expressed in mm3 using the formula: V=(L×W×W)/2, where V is tumor volume, L is tumor length (the longest tumor dimension) and W is tumor width (the longest tumor dimension perpendicular to L). […]

The mark [6] stands for this setting: human plasma, 0.1 mg/mL, 37° C.

Marks after values point to notes of the source that are not given here.

The compound “B12-3: B12(6-N3-GalNAc)2 conjugated with BCN—HS-PEG2-HS-(va-PAB-Ex)2 3; negative / isotype control ADC [reference compound]” yielded a concentration for half-maximal inhibition (IC50) in data set [1] above 100 nM.

Regarding “cofetuzumab-5b: cofetuzumab(6-N3-GalNAc)2 conjugated with BCN—HS-vc-PABC-calicheamicin 5b; average DAR 1.93”, in data set [2], the “in vivo efficacy (tumor volume over time)” value is reported as “tumor growth delay”. This compound showed an IC50 in data set [1] of 0.1 nM.

With “cofetuzumab-Aur0101: TCEP-reduced cofetuzumab conjugated with Auristatin0101; average DAR 4.3; conventional comparator ADC [reference compound]”, the “in vivo efficacy (tumor volume over time)” value in data set [2] was “only marginal tumor growth delay”. The “DAR t = 0” value in data set [3] (human plasma table, direct measurement (not through isolation from plasma with protA agarose resin)) is recorded as 4.21*. Also, in data set [3] (setting [6]), the “DAR t = 3” value amounted to 3.61; the “DAR t = 14” value came out at 2.67; the “DAR t = 14, % of t = 0” value turned out to be 63%. The “DAR t = 0” value in data set [4] (mice plasma table, direct measurement (not through isolation from plasma with protA agarose resin)) is 4.21*. Also, in data set [4] (mice plasma, 0.1 mg/mL, 37° C.), the “DAR t = 1” value turned out to be 3.64; the “DAR t = 3” value was 3.26; the “DAR t = 7” value is on record as 2.46; the “DAR t = 7, % of t = 0” value was determined as 58%.

For the compound `O=C(c1cc(Cc2n[nH]c(=O)c3ccccc23)ccc1F)N1CCN(C(=O)C2CC2)CC1` [Olaparib], the “in vivo efficacy (tumor volume over time), single treatment” value in data set [5] is “no significant effect”.
